Data reported in patent US6030777.

How the values were obtained:
[1] = biological target: E. coli core RNA polymerase (E. coli) (UniProt P0A7Z4)
[2] = biological target: E. coli sigma^70 (E. coli) (UniProt P00579)
[3] = biological target: Salmonella typhimurium sigma^70, purified (Salmonella typhimurium) (UniProt P0A2E3)

| Substance | RNA polymerase activity, [^3 H]UTP (nmol) ([^3 H]UTP (nmol)) [1] | E. coli RNA polymerase assay (sigma^70 dependent transcription on T4 phage DNA) [2] | RNA polymerase activity, [^3 H]UTP (nmol), after adding S. typhimurium sigma^70 to E. coli RNA polymerase inhibited by AsiA ([^3 H]UTP (nmol)) [3] | RNA polymerase activity, [^3 H]UTP (nmol), with sigma^70 preincubated with AsiA ([^3 H]UTP (nmol)) [3] |
| --- | --- | --- | --- | --- |
| Salmonella typhimurium sigma^70, purified (from UniProt P0A2E3) | 2.3 |  |  |  |
| AsiA protein (10 kDa anti-sigma^70 factor of bacteriophage T4), purified |  | > 80 % inhibited | 3 | 0.98 |
